pKd: −log10 of the molar value.

Usually pKd stands for −log10 of the Kd, conventionally taken in molar units.

The target of this test is SecA* (SecA795C labelled with 5-iodoacetamidofluorescein) (UniProt P10408). The test is described as follows: other fluorescence titration; SecYEG variant in detergent titrated into 10 nM fluorescein-labelled SecA*; quenching read at 522 nm; 20 mM Tris pH 8, 130 mM NaCl, 10% glycerol, 0.02% DDM, 2 mM MgCl2, 1 mM AMP-PNP; fitted to a tight binding equation.
On to “SecYEDPEG (SecY_(R357E/P358D/G359P)EG) (from UniProt P0AGA2 1-443; P0AG96 1-127; P0AG99 1-110) (complex)”, for which the negative-log Kd (pKd) was 6.87.

The substance “SecY_(prlA4)EG (SecY_(F286Y/I408N)EG) (from UniProt P0AGA2 1-443; P0AG96 1-127; P0AG99 1-110) (complex)” gave a pKd of 7.44.

In turn, “SecY_(prlA4-EDP)EG (SecY_(F286Y,I408N,R357E,P358D,G359P)EG) (from UniProt P0AGA2 1-443; P0AG96 1-127; P0AG99 1-110) (complex)” had a pKd of 7.38.

The record behind these values is paper PMC4826270.
